How the values were obtained:
[1] = biological target: RSV F glycoprotein nanoparticles (human respiratory syncytial virus A2 (RSV/A2))
[2] = biological target: Post-fusion F (human respiratory syncytial virus A2 (RSV/A2)); assay: SPR
[3] = biological target: RSV F710 post-fusion (human respiratory syncytial virus A2 (RSV/A2) | bacteriophage T4); assay: cryo-EM structure; single particle cryo-EM of the purified RSV F710-R4.C6 Fab complex on graphene oxide grids; C3 symmetry; overall 3.9 A

Q: Which RSV/A Long neutralization (IC50), micro-neutralization assay on HEp-2 cells [1] does the source give for Motavizumab (antibody) here?
A: 0.0208 µg/mL

Q: What does the source list for Palivizumab?
A: Kd [2]: 0.34 nM; koff [2]: 5.79e-05 s⁻¹

Q: With RSV F710 post-fusion as the substance, how does the stoichiometry N [3] read?
A: 3

From PMC6366758
